We go through 72 sequences from the supplement of paper PMC10567573.

± gives the standard deviation.

This data set is described as follows: protein stability index of a GFP-peptide fusion (GPS, HEK-293T) (PSI 1-6); higher = more stable.
Where [1] appears, read: treatment: DMSO, c terminus: a fixed tail appended.
Where [2] appears, read: treatment: MLN4924 1 uM, 8 h, c terminus: a fixed tail appended.
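Note: 24-mer peptide tiles fused after GFP, lentivirally expressed, FACS-sorted into six equal bins by GFP/DsRed ratio, decoded by Illumina sequencing, PSI is the read-weighted mean bin number.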

For GDWHSPTLIREKSFGACLREETPR [ELOA2], the protein stability index is, setting by setting: under setting [1], 3.61 ± 0.3; under setting [2], 3.76 ± 0.32.

Turning to GELQESGLALCPEVQDLLEGCELP [SMG5], the protein stability index is 5.17 ± 0.11 under setting [1] and 5.08 ± 0.22 under setting [2].

Consider GENAGSLTHIEAQNKIRACGERLS [PDLIM7], for which the protein stability index was determined as 4.57 ± 0.26 under setting [1] and 4.62 ± 0.14 under setting [2].

For the sequence GEPQQDCCVKTELLGEETPMAADE [EHMT1], the protein stability index by setting is: under setting [1], 5.55 ± 0.25; under setting [2], 5.53 ± 0.14.

As to GFAERRIDKFGFIVGSQGAEGALE [TBC1D10A], the protein stability index was found to be 3.93 ± 0.46 under setting [1] and 3.93 ± 0.19 under setting [2].

With GFSCDGTANTFRVMFKEPIEILPN [BTBD1], the protein stability index is, setting by setting: under setting [1], 2.6 ± 0.22; under setting [2], 2.73 ± 0.31.

On to GGATFLLTAKQLIKSIVEASKGCQ [TRIM63], for which the protein stability index came out at 2.87 ± 0.7 under setting [1] and 2.86 ± 0.47 under setting [2].

With GGGLTGVSGSHFVGVDGVRAFLQT [PCDHGA10], the protein stability index reads like this: under setting [1], 2.82 ± 0.29; under setting [2], 2.83 ± 0.32.

Consider GGPQRIPAHRFVLAAGSAVFDAMF [BTBD1], for which the protein stability index came out at 2.52 ± 0.31 under setting [1] and 2.2 ± 0.56 under setting [2].

In turn, GGRFRCPSCRHEVVLDRHGVYGLQ [TRIM55] registered a protein stability index under setting [1] of 2.31 ± 0.23 and a protein stability index under setting [2] of 2.36 ± 0.6.

GGYGFGRGRASGFAGSMFGSVALG [KRT71]: the protein stability index under setting [1] is 3.05 ± 0.6 and the protein stability index under setting [2] was 2.96 ± 0.25.

As to GKGFRHSSSLAQHQRKHAGEKPFE [ZNF8], the protein stability index stood at 4.82 ± 0.21 under setting [1] and 4.69 ± 0.28 under setting [2].

Consider GKSPDTNYLFMGDYVDRGYYSVET [PPP2CA], for which the protein stability index reads like this: under setting [1], 2.73 ± 0.28; under setting [2], 2.87 ± 0.17.

As for GKTPTVRAALICLTLVLVASVLLQ [CD207], the protein stability index was determined as 3.17 ± 0.16 under setting [1] and 3.11 ± 0.76 under setting [2].

GKWMKKFPESETKECPFRVNKVCG [SERPINB5]: the protein stability index came to 3.13 ± 0.32 under setting [1] and 3.47 ± 0.38 under setting [2].

Take GLLQDQGSGLSSRFEEPKGPPARQ [CBY2]: the protein stability index was 4.89 ± 0.29 under setting [1] and 5.09 ± 0.23 under setting [2].

Consider GLMVTCGTDRIVKIWDMTPVVGCS [WDFY1], for which the protein stability index by setting is: under setting [1], 2.29 ± 0.21; under setting [2], 2.18 ± 0.22.

As to GLRASTSDGILRGNGTGYLPGRGR [RHOBTB2], the protein stability index by setting is: under setting [1], 4.58 ± 0.26; under setting [2], 4.58 ± 0.2.

Turning to GLVTAALHMVIVAAFTWAFTLFFE [KMT2E], the protein stability index reads like this: under setting [1], 1.96 ± 0.3; under setting [2], 1.83 ± 0.29.

In the case of GMGGIQNEKETMQSLNDRLASYLD [KRT18], the protein stability index runs as follows: under setting [1], 3.86 ± 0.18; under setting [2], 3.84 ± 0.23.

As for GNCKYKVDCACLKENPECPVLKRS [KMT2E], the protein stability index is, setting by setting: under setting [1], 3.41 ± 0.5; under setting [2], 4.05 ± 0.74.

GNMFPTIGDVHLAPFTDEQLYMEQ [CARM1]: the protein stability index is 3.93 ± 0.27 under setting [1] and 4.12 ± 0.19 under setting [2].

On to GNPRALSFVLSSLQLGEGVEFDVL [OAS1], for which the protein stability index amounted to 2.29 ± 0.22 under setting [1] and 2.12 ± 0.32 under setting [2].

As to GPAAAAAPSLEAPKPSGLEPGPAA [KCTD13], the protein stability index was found to be 5.4 ± 0.11 under setting [1] and 5.39 ± 0.29 under setting [2].

Sequence GPDNLVLLNPEKYKAKSRSPGSPV [ADD1] displayed a protein stability index under setting [1] of 4.47 ± 0.25 and a protein stability index under setting [2] of 4.63 ± 0.13.

For the sequence GPLAQPLTLQVLVAGNPQDTRLRY [ADAMTS4], the protein stability index reads like this: under setting [1], 2.49 ± 0.22; under setting [2], 2.86 ± 0.1.

For GPLDIWAVVKPGNTKEKIAFFASH [FBXO34], the protein stability index is, setting by setting: under setting [1], 2.45 ± 0.27; under setting [2], 2.78 ± 0.21.

GPPPGAPHTPQTPGQGGPASTPAQ [NR2F2]: the protein stability index turned out to be 5.34 ± 0.18 under setting [1] and 5.34 ± 0.16 under setting [2].

Consider GQFVSLDGAGKTPTLGGGFHVNLG [BRF1], for which the protein stability index runs as follows: under setting [1], 2.96 ± 0.37; under setting [2], 3.06 ± 0.11.

Consider GRARATGGDLEEQQHAEGSPEPGT [DNAAF3], for which the protein stability index runs as follows: under setting [1], 5.59 ± 0.3; under setting [2], 5.54 ± 0.23.

GRRQRKSEKRRDPPNGPNLPMATV [WASL]: the protein stability index reads like this: under setting [1], 4.7 ± 0.37; under setting [2], 4.47 ± 0.13.

Turning to GSDSVIMTGAYNNFFRMFDRNTKR [PPP2R2C], the protein stability index reads like this: under setting [1], 3.22 ± 0.22; under setting [2], 3.39 ± 0.36.

Take GSPGMIYSTRYGSPKRQLQFYRNL [KCNAB2]: the protein stability index reads like this: under setting [1], 2.44 ± 0.55; under setting [2], 3.1 ± 0.38.

For the sequence GSSFSGRVFRVTFLMLAVSLTVPL [APMAP], the protein stability index by setting is: under setting [1], 3.06 ± 0.3; under setting [2], 3.05 ± 0.35.

Turning to GTETHGLVQVTLLDTVELATYCVR [PTPRD], the protein stability index reads like this: under setting [1], 2.39 ± 0.22; under setting [2], 2.55 ± 0.51.

With GTSALWRHLRSAHRRELESSGAGS [ZBED3], the protein stability index runs as follows: under setting [1], 3.78 ± 0.57; under setting [2], 4.1 ± 0.25.

Regarding GTSHGAPPARGPRMSYGGSTCHAY [RBMY1A1], the protein stability index is, setting by setting: under setting [1], 3.79 ± 0.22; under setting [2], 3.77 ± 0.21.

For GTVIGVTSCIVIILIIISVIVQIK [NETO1], the protein stability index amounted to 3.16 ± 0.34 under setting [1] and 3.02 ± 0.36 under setting [2].

Regarding GVPNASVIMQVPERIVVAGNNEDV [MFF], the protein stability index reads like this: under setting [1], 4.68 ± 0.72; under setting [2], 4.35 ± 0.31.

Regarding GVQREAQRIALRLGNGNDKKEMNK [KMT2E], the protein stability index under setting [1] was 4.8 ± 0.26 and the protein stability index under setting [2] was 4.78 ± 0.28.

Turning to GVVVEDGVCIRRCTVLRDARIRSH [GMPPB], the protein stability index by setting is: under setting [1], 2.83 ± 0.19; under setting [2], 2.75 ± 0.33.

In turn, GVWAVIISHQQCWASTSPGTDLPL [TRIM15] yielded a protein stability index under setting [1] of 2.75 ± 0.97 and a protein stability index under setting [2] of 2.67 ± 0.18.

As for GVWHQMGTDGYMPRELASMSLVLH [KLHDC10], the protein stability index is, setting by setting: under setting [1], 2.08 ± 0.21; under setting [2], 2.06 ± 0.27.

As for HAPQISYTGPSSSGRFAGREWYYG [NCK2], the protein stability index under setting [1] stood at 2.52 ± 0.17 and the protein stability index under setting [2] is 2.8 ± 0.4.

For the sequence HCRENAHDKIRPISSIGQVQSYME [SPACA9], the protein stability index reads like this: under setting [1], 3.44 ± 0.22; under setting [2], 3.29 ± 0.26.

HDFFLQGFTPDRLSSSCCHTVPDF [PLK2]: the protein stability index reads like this: under setting [1], 2.71 ± 0.23; under setting [2], 2.73 ± 0.24.

As for HDFIEHILRKLPQQREKLSLIRKH [CCND2], the protein stability index by setting is: under setting [1], 2.3 ± 0.1; under setting [2], 2.45 ± 0.25.

As to HFRGVSLNLTRKLAQQLCTALLFL [DYRK1B], the protein stability index reads like this: under setting [1], 2.04 ± 0.4; under setting [2], 2.15 ± 0.23.

Take HFSQSLTVIHDFLFSLKESPEKFQ [FAF2]: the protein stability index under setting [1] was 2.06 ± 0.23 and the protein stability index under setting [2] stood at 2.44 ± 0.26.

Consider HIFPASRWEPYDPEKKWDKYTIR [FAM50A], for which the protein stability index was 2.82 ± 0.45 (treatment: DMSO, c terminus: native) and 3.15 ± 0.51 (treatment: MLN4924 1 uM, 8 h, c terminus: native).

In turn, HILAAEQLSRDSTLGGKAFHITND [NSDHL] gave a protein stability index under setting [1] of 3.39 ± 0.1 and a protein stability index under setting [2] of 3.49 ± 0.28.

Sequence HLQLLGAVCMFLASKLKETSPLTA [CCND2] returned a protein stability index under setting [1] of 2.48 ± 0.34 and a protein stability index under setting [2] of 2.36 ± 0.25.

For the sequence HLSRQKIDPLLYMTEWFMCAFSRT [TBC1D10A], the protein stability index by setting is: under setting [1], 2.8 ± 0.31; under setting [2], 2.67 ± 0.55.

As to HMVKISGGPHISYPPLHEWVLREG [MAGEA3], the protein stability index runs as follows: under setting [1], 2.29 ± 0.34; under setting [2], 2.43 ± 0.35.

As for HNISHMSMDIARGLMVTCGTDRIV [WDFY1], the protein stability index by setting is: under setting [1], 2.26 ± 0.16; under setting [2], 2.27 ± 0.15.

With HNIVHVHFDATRGWLLTSGTDKVI [WDFY2], the protein stability index runs as follows: under setting [1], 2.26 ± 0.45; under setting [2], 2.25 ± 0.15.

For the sequence HNLIEQVSLGLGQPWHAVMDIESL [FBXO33], the protein stability index by setting is: under setting [1], 2.59 ± 0.52; under setting [2], 2.48 ± 0.16.

As to HRELLRLESRIRDVHELFLQMAVL [STX11], the protein stability index under setting [1] was 2.49 ± 0.33 and the protein stability index under setting [2] was found to be 2.4 ± 0.28.

On to HRTRLQDLRVLVSNASEDTRRLRL [SCARA5], for which the protein stability index was found to be 3.29 ± 0.11 under setting [1] and 3.57 ± 0.15 under setting [2].

In the case of HSDHSSEMSLPEVQKDKYPEEFSL [SPATS1], the protein stability index amounted to 5.3 ± 0.29 under setting [1] and 5.26 ± 0.29 under setting [2].

With HSLDLNISEKLTLLPTLYEIHSKT [RNF180], the protein stability index stood at 2.34 ± 0.26 under setting [1] and 2.46 ± 0.42 under setting [2].

On to HSVFEFLAFKNDIQFWNSRQSLEG [CLPTM1], for which the protein stability index is, setting by setting: under setting [1], 2.03 ± 0.17; under setting [2], 2.13 ± 0.28.

For the sequence HVQNQVDEVIDVMQENITKVIERG [VAMP4], the protein stability index by setting is: under setting [1], 3.95 ± 0.2; under setting [2], 4.13 ± 0.52.

IAILLYKSKPDRKRAESDSRKSSI [PTPRD] gave a protein stability index under setting [1] of 1.75 ± 0.23 and a protein stability index under setting [2] of 1.92 ± 0.44.

As for IAMAVYTYLRLIVDHHGTAQLQAL [INTS3], the protein stability index by setting is: under setting [1], 3.35 ± 0.51; under setting [2], 3.17 ± 0.14.

ICQGDGSSCTHVTGNYRKGNAHLG [ADAMTSL2]: the protein stability index is 3.74 ± 0.33 under setting [1] and 3.92 ± 0.26 under setting [2].

IDAIYSVIDDAKQYVYIAVMDYLP [PLD5] displayed a protein stability index under setting [1] of 3.55 ± 0.11 and a protein stability index under setting [2] of 3.73 ± 0.42.

For IDKEIELHRILHHKHVVQFYHYFE [PLK2], the protein stability index amounted to 2.12 ± 0.29 under setting [1] and 2.18 ± 0.38 under setting [2].

Consider IDKGDESWVTDMCKVGASSDPCGQ [PNLIPRP1], for which the protein stability index by setting is: under setting [1], 4.52 ± 0.48; under setting [2], 4.66 ± 0.36.

With IDRMFPEMSIHLSRPNGTSAMLLV [MED27], the protein stability index worked out at 2.65 ± 0.71 under setting [1] and 2.75 ± 0.52 under setting [2].

As for IDSHLLLSVLPQLEFKLKSNDNEE [PDS5B], the protein stability index is, setting by setting: under setting [1], 3.32 ± 0.27; under setting [2], 3.09 ± 0.096.

For IDYGANVNQPNNNGFTPLHFAAAS [ANKRD44], the protein stability index came to 3.1 ± 0.19 under setting [1] and 3 ± 0.26 under setting [2].
